Reference: article PMC4493999

Biological target: anaphase-promoting complex/cyclosome (APC/C) complex (human (endogenous in HeLa)) (UniProt P30260)
Test: co-IP

Sequence of UniProt P30260 (P30260 whole entry, looked up, one chain of several): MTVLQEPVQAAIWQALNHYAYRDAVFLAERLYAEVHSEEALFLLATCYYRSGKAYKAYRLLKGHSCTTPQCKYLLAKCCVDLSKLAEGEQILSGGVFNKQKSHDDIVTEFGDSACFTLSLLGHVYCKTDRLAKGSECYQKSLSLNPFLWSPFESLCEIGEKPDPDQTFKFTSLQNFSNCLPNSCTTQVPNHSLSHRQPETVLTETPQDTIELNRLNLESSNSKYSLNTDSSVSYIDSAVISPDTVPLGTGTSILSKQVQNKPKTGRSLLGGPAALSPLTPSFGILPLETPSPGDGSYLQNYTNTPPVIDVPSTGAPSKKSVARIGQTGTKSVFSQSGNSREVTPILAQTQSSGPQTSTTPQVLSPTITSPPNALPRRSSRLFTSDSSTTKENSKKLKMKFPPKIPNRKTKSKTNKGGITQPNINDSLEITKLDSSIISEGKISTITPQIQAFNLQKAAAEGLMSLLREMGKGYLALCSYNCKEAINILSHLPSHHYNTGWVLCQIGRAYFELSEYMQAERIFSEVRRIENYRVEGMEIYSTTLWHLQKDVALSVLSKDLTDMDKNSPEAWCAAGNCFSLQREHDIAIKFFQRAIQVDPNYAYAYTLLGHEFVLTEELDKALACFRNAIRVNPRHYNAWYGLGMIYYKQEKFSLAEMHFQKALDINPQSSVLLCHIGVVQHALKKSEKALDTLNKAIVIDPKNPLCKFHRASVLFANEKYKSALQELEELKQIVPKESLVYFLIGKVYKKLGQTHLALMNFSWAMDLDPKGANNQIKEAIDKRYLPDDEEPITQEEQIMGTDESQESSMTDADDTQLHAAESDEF

- amount coprecipitated, percent of that of Cdh1 S40A: 20%
- amount coprecipitated, percent of that of wild-type Cdh1: 30%
Substance: HA-tagged human Cdh1 S40D (from UniProt Q9UM11 1-496) (natural protein)
